Test system: human embryonic stem cell line H1
Assay: FACS analysis of insulin and synaptophysin in stage 6 cultures, Chordin instead of Noggin (Example 15)
Type: cell-based
Conditions: 50-100 ng/ml at stages 3-4 instead of Noggin, compared with Noggin
Description: Cells were dissociated into single cells from monolayer cultures using TrypLE Express (Invitrogen, Carlsbad, Calif.) and washed in cold PBS. For fixation, cells were resuspended in 200-300 μl Cytofix/Cytoperm Buffer (BD 554722, BD, Ca) and incubated for 30 min at 4° C. Cells were washed two times in 1 ml Perm/Wash Buffer Solution (BD 554723) and resuspended in 100 μl staining/blocking solution containing 2% normal goat serum in Perm/Wash buffer. For flow cytometric analysis, cells were stained with the following primary antibodies: Anti-Insulin (Rabbit mAb, Cell Signaling No. C27C9; 1:100 dilution), Anti-Glucagon (Mouse Mab, Sigma No. G2654, 1:100); Anti-Synaptophysin (Rabbit Polyclonal antibody, DakoCytomation No A0010, 1:50); Cells were incubated for 30 min at 4° C. followed by two washes in Perm/Wash buffer and further 30 min incubation in appropriate secondary antibodies as follows: Goat anti-Rabbit Alexa 647 (Invitrogen No. A21246) or Goat anti-Mouse 647 (Invitrogen No. A21235); Goat anti-Rabbit R-PE (BioSource No. ALI4407). All secondary antibodies were used at 1:200 dilution. Cells were washed at least once in Perm/Wash buffer and analyzed using BD FACSArray. A least 10,000 events were acquired for analysis. Controls included undifferentiated H1 cells and b-TC (ATCC, VA) cell line. FIGS. 20A-20C show the percentage insulin positive and synapthophysin+ cells in stage 6 cultures. […]

B1: Chordin: known inhibitor of BMP signaling (R&D Systems) (protein, UniProt Q9H2X0 27-955, looked up)
Chordin: AGPEPPVLPIRSEKEPLPVRGAAGCTFGGKVYALDETWHPDLGEPFGVMRCVLCACEAPQWGRRTRGPGRVSCKNIKPECPTPACGQPRQLPGHCCQTCPQERSSSERQPSGLSFEYPRDPEHRSYSDRGEPGAEERARGDGHTDFVALLTGPRSQAVARARVSLLRSSLRFSISYRRLDRPTRIRFSDSNGSVLFEHPAAPTQDGLVCGVWRAVPRLSLRLLRAEQLHVALVTLTHPSGEVWGPLIRHRALAAETFSAILTLEGPPQQGVGGITLLTLSDTEDSLHFLLLFRGLLEPRSGGLTQVPLRLQILHQGQLLRELQANVSAQEPGFAEVLPNLTVQEMDWLVLGELQMALEWAGRPGLRISGHIAARKSCDVLQSVLCGADALIPVQTGAAGSASLTLLGNGSLIYQVQVVGTSSEVVAMTLETKPQRRDQRTVLCHMAGLQPGGHTAVGICPGLGARGAHMLLQNELFLNVGTKDFPDGELRGHVAALPYCGHSARHDTLPVPLAGALVLPPVKSQAAGHAWLSLDTHCHLHYEVLLAGLGGSEQGTVTAHLLGPPGTPGPRRLLKGFYGSEAQGVVKDLEPELLRHLAKGMASLMITTKGSPRGELRGQVHIANQCEVGGLRLEAAGAEGVRALGAPDTASAAPPVVPGLPALAPAKPGGPGRPRDPNTCFFEGQQRPHGARWAPNYDPLCSLCTCQRRTVICDPVVCPPPSCPHPVQAPDQCCPVCPEKQDVRDLPGLPRSRDPGEGCYFDGDRSWRAAGTRWHPVVPPFGLIKCAVCTCKGGTGEVHCEKVQCPRLACAQPVRVNPTDCCKQCPVGSGAHPQLGDPMQADGPRGCRFAGQWFPESQSWHPSVPPFGEMSCITCRCGAGVPHCERDDCSLPLSCGSGKESRCCSRCTAHRRPAPETRTDPELEKEAEGS
expression of insulin and synaptophysin by FACS: very similar expression
